For experiment [1], the target named is hen eggwhite lysozyme (hen) (UniProt P00698). In words: fluorescence quench titration with hen eggwhite lysozyme, in solution.
The target is the same in experiment [2]. The experiment in a line: fluorescence quench titration with hen eggwhite lysozyme, in solution; reassociated chains.

Among the data in EP0239400B1 are Kd values, retold here.

UniProt P00698, sequence (P00698 19-147 limits assumed): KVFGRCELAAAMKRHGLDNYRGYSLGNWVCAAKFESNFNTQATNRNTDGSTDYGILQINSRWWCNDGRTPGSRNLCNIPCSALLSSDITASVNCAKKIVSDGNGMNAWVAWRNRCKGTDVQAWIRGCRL

On to antilysozyme antibody D1.3 (H₂K₂), for which the figures for the equilibrium dissociation constant (Kd) in experiment [1] and in experiment [2] were 14.4 nM and 11.4 nM, respectively.
As for “recombinant D1.3 (H*₂K₂) (reassociated) (antibody)”, the Kd in experiment [2] was determined as 9.2 nM. This lies in the single-digit nanomolar range.
